Columns and labels:
Assay in all cases: cross-linking
apoA-I E198K (human) = target: apoA-I E198K (human)
apoA-I L(42,44)D (human) = target: apoA-I L(42,44)D (human)
apoA-I L(46,47)D (human) = target: apoA-I L(46,47)D (human)

## apoA-I E198K (natural protein)
apoA-I E198K (human)
  stoichiometry N: 2

## apoA-I L(42,44)D (natural protein)
apoA-I L(42,44)D (human)
  stoichiometry N: 2

## apoA-I L(46,47)D (natural protein)
apoA-I L(46,47)D (human)
  stoichiometry N: 2
